Literature values as cited in patent publication US8232228B2 (priority 2002, dated 2012).

B1: HarpinEa: Hypersensitive response elicitor protein from Erwinia amylovora, amino acid sequence SEQ. ID. No. 3 (protein)
chain: MSLNTSGLGASTMQISIGGAGGNNGLLGTSRQNAGLGGNSALGLGGGNQNDTVNQLAGLLTGMMMMMSMMGGGGLMGGGLGGGLGNGLGGSGGLGEGLSNALNDMLGGSLNTLGSKGGNNTTSTTNSPLDQALGINSTSQNDDSTSGTDSTSDSSDPMQQLLKMFSEIMQSLFGDGQDGTQGSSSGGKQPTEGEQNAYKKGVTDALSGLMGNGLSQLLGNGGLGGGQGGNAGTGLDGSSLGGKGLQNLSGPVDYQQLGNAVGTGIGMKAGIQALNDIGTHRHSSTRSFVNKGDRAMAKEIGQFMDQYPEVFGKPQYQKGPGQEVKTDDKSWAKALSKPDDDGMTPASMEQFNKAKGMIKRPMAGDTGNGNLQARGAGGSSLGIDAMMAGDAINNMALGKLGAA
modifications: Erwinia amylovora - harpinEa
- heat stable at 100° C.: at least 10 minutes
